Measured values as given in patent publication US7026443.

The binders below were run against HLA-A*0301 (human) (assay: not given).
Work on LLIRCLRCQK (modifications not checked) [HPV18 E6 peptide … (position 101, 10 amino acids)] yielded a relative binding ratio (IC50 of standard peptide / IC50 of test peptide) of 0.047. In the case of NTGLYNLLIR (modifications not checked) [HPV18 E6 peptide … (position 95, 10 amino acids)], the relative binding ratio (IC50 of standard peptide / IC50 of test peptide) is reported as 0.0002. EVFEFAFK (modifications not checked) [HPV18 E6 peptide EVFEFAFK (position 43, 8 amino acids)] gave a relative binding ratio (IC50 of standard peptide / IC50 of test peptide) (ratio to standard peptide) of 0.0025. In the case of LTEVFEFAFK (modifications not checked) [HPV18 E6 peptide … (position 41, 10 amino acids)], the relative binding ratio (IC50 of standard peptide / IC50 of test peptide) is reported as 0.0001. In the case of CIDFYSRIR (modifications not checked) [HPV18 E6 peptide … (position 68, 9 amino acids)], the relative binding ratio (IC50 of standard peptide / IC50 of test peptide) (ratio to standard peptide) is reported as 0.0001. Work on DIEITCVYCK (modifications not checked) [HPV18 E6 peptide … (position 27, 10 amino acids)] yielded a relative binding ratio (IC50 of standard peptide / IC50 of test peptide) (ratio to standard peptide) of 0.0089. DSVYGDTLEK (modifications not checked) [HPV18 E6 peptide … (position 83, 10 amino acids)] showed a relative binding ratio (IC50 of standard peptide / IC50 of test peptide) (ratio to standard peptide) of 0.0005. SVYGDTLEK (modifications not checked) [HPV18 E6 peptide … (position 84, 9 amino acids)] showed a relative binding ratio (IC50 of standard peptide / IC50 of test peptide) of 0.08. LIRCLRCQK (modifications not checked) [HPV18 E6 peptide … (position 102, 9 amino acids)] was tested, and the relative binding ratio (IC50 of standard peptide / IC50 of test peptide) was 0.019.

What follows are binders tested against HLA-A*1101 (human) (assay: competition with 125I-labelled standard peptide for purified HLA, gel filtration).
Work on PLNPAEKLR (modifications not checked) [HPV18 E6 peptide … (position 111, 9 amino acids)] yielded a relative binding ratio (IC50 of standard peptide / IC50 of test peptide) of 0.0005. With GLSFTDLVR (modifications not checked) [HPV45 E1 209 …] the relative binding ratio (IC50 of standard peptide / IC50 of test peptide) (ratio to standard peptide) was 0.0025. With LVRNFKSDK (modifications not checked) [HPV45 E1 215 …] the relative binding ratio (IC50 of standard peptide / IC50 of test peptide) (ratio to standard peptide) was 0.0002. LILALLRYK (modifications not checked) [HPV45 E1 267 …] gave a relative binding ratio (IC50 of standard peptide / IC50 of test peptide) (ratio to standard peptide) of 0.18. LLIRCLRCQK (modifications not checked) [HPV18 E6 peptide … (position 101, 10 amino acids)] was tested, and the relative binding ratio (IC50 of standard peptide / IC50 of test peptide) was 0.12. NTGLYNLLIR (modifications not checked) [HPV18 E6 peptide … (position 95, 10 amino acids)] was tested, and the relative binding ratio (IC50 of standard peptide / IC50 of test peptide) was 0.0013. For EVFEFAFK (modifications not checked) [HPV18 E6 peptide EVFEFAFK (position 43, 8 amino acids)], the relative binding ratio (IC50 of standard peptide / IC50 of test peptide) was 0.018. MLIQPPKLR (modifications not checked) [… (HPV31 E1, position 285, 9 amino acids)] was tested, and the binding affinity ratio (IC50 of standard peptide / IC50 of test peptide) (ratio relative to standard peptide) was 0.0014. With LTEVFEFAFK (modifications not checked) [HPV18 E6 peptide … (position 41, 10 amino acids)] the relative binding ratio (IC50 of standard peptide / IC50 of test peptide) was 0.036. Work on GVLILALLR (modifications not checked) [HPV45 E1 265 …] yielded a relative binding ratio (IC50 of standard peptide / IC50 of test peptide) (ratio to standard peptide) of 0.14. CIDFYSRIR (modifications not checked) [HPV18 E6 peptide … (position 68, 9 amino acids)] gave a relative binding ratio (IC50 of standard peptide / IC50 of test peptide) of 0.0001. Binder SIPHAACHK (modifications not checked) [HPV18 E6 peptide … (position 59, 9 amino acids)] has a relative binding ratio (IC50 of standard peptide / IC50 of test peptide) of 0.12. For DIEITCVYCK (modifications not checked) [HPV18 E6 peptide … (position 27, 10 amino acids)], the relative binding ratio (IC50 of standard peptide / IC50 of test peptide) was 0.0021. For PLCPEEKQR (modifications not checked) [HPV31 E6 peptide … (position 109, 9 amino acids; Seq. Id. No. 10308)], the relative binding ratio (IC50 of standard peptide / IC50 of test peptide) was 0.0005. WLQPLADAK (modifications not checked) [… (HPV31 E1, position 489, 9 amino acids)] showed a binding affinity ratio (IC50 of standard peptide / IC50 of test peptide) (ratio relative to standard peptide) of 0.0002. Work on NSNAAAFLK (modifications not checked) [HPV45 E1 379 …] yielded a relative binding ratio (IC50 of standard peptide / IC50 of test peptide) (ratio to standard peptide) of 0.37. For DSVYGDTLEK (modifications not checked) [HPV18 E6 peptide … (position 83, 10 amino acids)], the relative binding ratio (IC50 of standard peptide / IC50 of test peptide) was 0.0051. Binder SVYGDTLEK (modifications not checked) [HPV18 E6 peptide … (position 84, 9 amino acids)] has a relative binding ratio (IC50 of standard peptide / IC50 of test peptide) of 0.23. LIRCLRCQK (modifications not checked) [HPV18 E6 peptide … (position 102, 9 amino acids)] gave a relative binding ratio (IC50 of standard peptide / IC50 of test peptide) of 0.0012. TMLCMCCK (modifications not checked) [HPV18 E7 peptide TMLCMCCK (position 60, 8 amino acids)] was tested, and the relative binding ratio (IC50 of standard peptide / IC50 of test peptide) was 0.024. KLRHLNEKR (modifications not checked) [HPV18 E6 peptide … (position 117, 9 amino acids)] showed a relative binding ratio (IC50 of standard peptide / IC50 of test peptide) of 0.0005.

What follows are binders tested against HLA-A*0301 (human) in the same assay as above.
PLNPAEKLR (modifications not checked) [HPV18 E6 peptide … (position 111, 9 amino acids)] gave a relative binding ratio (IC50 of standard peptide / IC50 of test peptide) of 0.0002. Work on GLSFTDLVR (modifications not checked) [HPV45 E1 209 …] yielded a relative binding ratio (IC50 of standard peptide / IC50 of test peptide) (ratio to standard peptide) of 0.0009. LVRNFKSDK (modifications not checked) [HPV45 E1 215 …] showed a relative binding ratio (IC50 of standard peptide / IC50 of test peptide) (ratio to standard peptide) of 0.0005. LILALLRYK (modifications not checked) [HPV45 E1 267 …] showed a relative binding ratio (IC50 of standard peptide / IC50 of test peptide) (ratio to standard peptide) of 0.27. LLIRCLRCQK (modifications not checked) [HPV18 E6 peptide … (position 101, 10 amino acids)] gave a relative binding ratio (IC50 of standard peptide / IC50 of test peptide) of 0.047. NTGLYNLLIR (modifications not checked) [HPV18 E6 peptide … (position 95, 10 amino acids)] showed a relative binding ratio (IC50 of standard peptide / IC50 of test peptide) of 0.0002. In the case of EVFEFAFK (modifications not checked) [HPV18 E6 peptide EVFEFAFK (position 43, 8 amino acids)], the relative binding ratio (IC50 of standard peptide / IC50 of test peptide) is reported as 0.0025. MLIQPPKLR (modifications not checked) [… (HPV31 E1, position 285, 9 amino acids)] was tested, and the binding affinity ratio (IC50 of standard peptide / IC50 of test peptide) (ratio relative to standard peptide) was 0.0005. Binder LTEVFEFAFK (modifications not checked) [HPV18 E6 peptide … (position 41, 10 amino acids)] has a relative binding ratio (IC50 of standard peptide / IC50 of test peptide) of 0.0001. Binder GVLILALLR (modifications not checked) [HPV45 E1 265 …] has a relative binding ratio (IC50 of standard peptide / IC50 of test peptide) (ratio to standard peptide) of 0.0058. Work on CIDFYSRIR (modifications not checked) [HPV18 E6 peptide … (position 68, 9 amino acids)] yielded a relative binding ratio (IC50 of standard peptide / IC50 of test peptide) of 0.0001. SIPHAACHK (modifications not checked) [HPV18 E6 peptide … (position 59, 9 amino acids)] showed a relative binding ratio (IC50 of standard peptide / IC50 of test peptide) of 0.017. DIEITCVYCK (modifications not checked) [HPV18 E6 peptide … (position 27, 10 amino acids)] gave a relative binding ratio (IC50 of standard peptide / IC50 of test peptide) of 0.0089. Binder PLCPEEKQR (modifications not checked) [HPV31 E6 peptide … (position 109, 9 amino acids; Seq. Id. No. 10308)] has a relative binding ratio (IC50 of standard peptide / IC50 of test peptide) of 0.0002. Work on WLQPLADAK (modifications not checked) [… (HPV31 E1, position 489, 9 amino acids)] yielded a binding affinity ratio (IC50 of standard peptide / IC50 of test peptide) (ratio relative to standard peptide) of 0.0005. Work on NSNAAAFLK (modifications not checked) [HPV45 E1 379 …] yielded a relative binding ratio (IC50 of standard peptide / IC50 of test peptide) (ratio to standard peptide) of 0.0057. With DSVYGDTLEK (modifications not checked) [HPV18 E6 peptide … (position 83, 10 amino acids)] the relative binding ratio (IC50 of standard peptide / IC50 of test peptide) was 0.0005. SVYGDTLEK (modifications not checked) [HPV18 E6 peptide … (position 84, 9 amino acids)] showed a relative binding ratio (IC50 of standard peptide / IC50 of test peptide) of 0.08. In the case of LIRCLRCQK (modifications not checked) [HPV18 E6 peptide … (position 102, 9 amino acids)], the relative binding ratio (IC50 of standard peptide / IC50 of test peptide) is reported as 0.019. Binder TMLCMCCK (modifications not checked) [HPV18 E7 peptide TMLCMCCK (position 60, 8 amino acids)] has a relative binding ratio (IC50 of standard peptide / IC50 of test peptide) of 0.024. For KLRHLNEKR (modifications not checked) [HPV18 E6 peptide … (position 117, 9 amino acids)], the relative binding ratio (IC50 of standard peptide / IC50 of test peptide) was 0.025.

These binders were tested against HLA-A*0301 (human) (assay: competition with 125I-labelled standard peptide for purified HLA-A*0301, gel filtration).
Work on PLNPAEKLR (modifications not checked) [HPV18 E6 peptide … (position 111, 9 amino acids)] yielded a relative binding ratio (IC50 of standard peptide / IC50 of test peptide) of 0.0002. With SIPHAACHK (modifications not checked) [HPV18 E6 peptide … (position 59, 9 amino acids)] the relative binding ratio (IC50 of standard peptide / IC50 of test peptide) was 0.017. KLRHLNEKR (modifications not checked) [HPV18 E6 peptide … (position 117, 9 amino acids)] showed a relative binding ratio (IC50 of standard peptide / IC50 of test peptide) (ratio to standard peptide) of 0.025.

What follows are binders tested against HLA-A*1101 (human) (assay: competition with 125I-labelled standard peptide for purified HLA-A*1101, gel filtration).
With RLKAICIEK (modifications not checked) [… (HPV16 E1, position 109, 9 amino acids)] the binding affinity ratio (IC50 of the standard peptide / IC50 of the test peptide) was 0.051. NVLKTSNAK (modifications not checked) [… (HPV16 E1, position 196, 9 amino acids)] gave a binding affinity ratio (IC50 of the standard peptide / IC50 of the test peptide) of 0.0015. In the case of SVICFVNSK (modifications not checked) [… (HPV16 E1, position 497, 9 amino acids)], the binding affinity ratio (IC50 of the standard peptide / IC50 of the test peptide) is reported as 0.0002. Binder NAKAAMLAK (modifications not checked) [HPV16 E1 202 …] has a binding affinity ratio (IC50 of standard peptide / IC50 of test peptide) (ratio to standard peptide) of 0.0031. For PLCPEEKQR (modifications not checked) [… (HPV16 E6, position 116, 9 amino acids)], the relative binding ratio (IC50 of standard peptide / IC50 of test peptide) was 0.0005. SCCRSSRTR (modifications not checked) [… (HPV16 E6, position 145, 9 amino acids)] gave a relative binding ratio (IC50 of standard peptide / IC50 of test peptide) of 0.0001. Work on WTGRCMSCCR (modifications not checked) [… (HPV16 E6, position 139, 10 amino acids)] yielded a relative binding ratio (IC50 of standard peptide / IC50 of test peptide) of 0.0008. Work on NINAGTDSR (modifications not checked) [HPV16 E1 567 …] yielded a binding affinity ratio (IC50 of standard peptide / IC50 of test peptide) (ratio to standard peptide) of 0.0002. Work on TAQEAKQHR (modifications not checked) [… (HPV16 E1, position 72, 9 amino acids)] yielded a binding affinity ratio (IC50 of the standard peptide / IC50 of the test peptide) of 0.0025. Binder SLFGMSLMK (modifications not checked) [… (HPV16 E1, position 484, 9 amino acids)] has a binding affinity ratio (IC50 of the standard peptide / IC50 of the test peptide) of 7.1. EGTGCNGWFY (modifications not checked) [HPV16 E1 11 …] was tested, and the relative binding ratio (IC50 of standard peptide / IC50 of test peptide) was 0.0002. TGRCMSCCR (modifications not checked) [… (HPV16 E6, position 140, 9 amino acids)] showed a relative binding ratio (IC50 of standard peptide / IC50 of test peptide) of 0.0001. Work on AICIEKQSR (modifications not checked) [HPV16 E1 112 …] yielded a relative binding ratio (IC50 of standard peptide / IC50 of test peptide) of 0.0057.
